Reference: US12497461B2, “Human NTCP-binding antibody capable of inhibiting infection of hepatitis B virus (HBV) to human hepatocytes” (priority 2019, dated 2025)

Experiments:
[1] = type: in vivo, human hepatocyte chimeric mouse (uPA/SCID); settings: administration group; highest at HBV inoculation, decreased on and after the first week
Description: Preparation of uPA/SCID mice and transplantation of human hepatocytes were carried out in accordance with the report (Tateno C. et al., Am. J. Pathol., 165: 901-912, 2004). To all mice, human hepatocytes taken from the same donor were transplanted. Twenty-three mice, which are obtained by replacing 90% or more of the liver tissue with human hepatocytes by transplantation, were used in the experiment. To these mice, human serum containing 10^3 copies of HBV was administered (inoculated) through the tail vein. One day before and two days after HBV inoculation, 2.0 mg of purified N6HB426-20 antibody was intravenously injected. On Day 7, 14, and 21 after the HBV inoculation, 1.0 mg of the same antibody was intraperitoneally injected. As a control experiment, the same dose of normal mouse IgG antibody (Normal Mouse IgG, Whole Molecule, Purified, FUJIFILM Wako Pure Chemical Corporation) was injected in the same manner. A single mouse died on Day 0 after administration was excluded from the experiment. […]
For quantification of HBV-DNA, 10 μL of mouse serum was used. […] The serum HBV-DNA level was measured by a real-time PCR method using cobas 6800 System (Roche Diagnostics KK, Tokyo, Japan). In this measurement method, the lower limit of quantification was 3.61 log copies/mL. Mouse serum (10 μL) was diluted 30 folds with PBS and bile acid was measured.

human NTCP = target: T1, human NTCP (Homo sapiens, UniProt Q14973); test: In vitro bile acid ([3H]-taurocholic acid) uptake in human NTCP-expressing HepG2 (Example 1); type: cell-based
T1 construct: expressed in transfected cells; host or cells: HepG2 cells, lentiviral transduction
T1 sequence (Q14973 1-349): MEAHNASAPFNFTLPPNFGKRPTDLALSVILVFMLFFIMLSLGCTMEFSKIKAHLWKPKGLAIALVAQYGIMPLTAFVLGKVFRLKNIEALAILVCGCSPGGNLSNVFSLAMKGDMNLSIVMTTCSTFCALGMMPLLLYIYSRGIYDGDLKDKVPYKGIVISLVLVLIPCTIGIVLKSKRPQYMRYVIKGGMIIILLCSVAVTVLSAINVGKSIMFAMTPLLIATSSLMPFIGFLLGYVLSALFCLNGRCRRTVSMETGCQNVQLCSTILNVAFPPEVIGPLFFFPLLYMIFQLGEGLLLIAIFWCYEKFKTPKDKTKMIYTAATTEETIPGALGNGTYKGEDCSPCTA

human NTCP Y146A mutant = target: T2, human NTCP Y146A mutant (Homo sapiens, UniProt Q14973, Y146A); test: Antibody binding to NTCP mutant (epitope mapping); settings: FIG. 5A, left
T2 construct: expressed in transfected cells; host or cells: HepG2 or Huh7 cells, lentiviral transduction
T2 sequence (Q14973 1-349 Y146A): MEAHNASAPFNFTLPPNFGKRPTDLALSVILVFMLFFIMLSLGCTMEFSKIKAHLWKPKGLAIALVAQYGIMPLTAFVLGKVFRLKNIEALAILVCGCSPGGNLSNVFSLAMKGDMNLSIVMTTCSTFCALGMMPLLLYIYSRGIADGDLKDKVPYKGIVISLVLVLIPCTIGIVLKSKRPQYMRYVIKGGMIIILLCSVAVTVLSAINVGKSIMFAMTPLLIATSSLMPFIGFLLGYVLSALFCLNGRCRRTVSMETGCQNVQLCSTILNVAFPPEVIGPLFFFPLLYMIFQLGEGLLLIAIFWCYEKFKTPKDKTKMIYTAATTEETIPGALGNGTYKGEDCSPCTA
Description: (§1) To establish NTCP expression cells, HepG2 cells or Huh7 cells were infected with a lentiviral vector having a nucleic acid encoding a wild-type NTCP or each of NTCP mutants. Forty-eight hours after infection, the cells were subjected to an immunofluorescence assay or a viral infection assay.
(§2) Huh7 cells expressing a wild-type NTCP or each of the NTCP mutants were fixed with 4% paraformaldehyde, and then, a permeation treatment with 0.3% Triton X-100 was performed. Each of the NTCPs was detected by using N6HB426-20 antibody or HE1-9-10 antibody (dilution ratio: 1:200) and an Alexa Fluor488-conjugate goat anti-mouse IgG antibody (secondary antibody) (Thermo Fisher Scientific) (dilution ratio: 1:1000). Imaging of the cells was carried out by use of a laser scanning confocal microscope using FLUOVIEW fv1000 and IX73 (OLYMPAS).
(§3) In this manner, the relationship with a region important for HBV infection was clarified. Sensitivity to HBV infection, a change in inhibitory activity of the antibody and contribution of a predetermined amino acid residue to FACS analysis were evaluated by alanine scanning method and use of an NTCP mutant transfectant. […] However, both ends of the amino acid residues at positions 276-277 (i.e., amino acid residues at positions 274-275 and 278-279) serve as an epitope involved in HBV infection. […] The phenomenon was further precisely analyzed. […]

[2] = target: T3, human NTCP triple mutant (YDD146, 149, and 152AAA) (Homo sapiens, UniProt Q14973, D149A/D152A/Y146A); test: Antibody binding to NTCP mutant (epitope mapping); settings: FIG. 5B
T3 construct: expressed in transfected cells; host or cells: HepG2 or Huh7 cells, lentiviral transduction
T3 sequence (Q14973 1-349 Y146A/D149A/D152A): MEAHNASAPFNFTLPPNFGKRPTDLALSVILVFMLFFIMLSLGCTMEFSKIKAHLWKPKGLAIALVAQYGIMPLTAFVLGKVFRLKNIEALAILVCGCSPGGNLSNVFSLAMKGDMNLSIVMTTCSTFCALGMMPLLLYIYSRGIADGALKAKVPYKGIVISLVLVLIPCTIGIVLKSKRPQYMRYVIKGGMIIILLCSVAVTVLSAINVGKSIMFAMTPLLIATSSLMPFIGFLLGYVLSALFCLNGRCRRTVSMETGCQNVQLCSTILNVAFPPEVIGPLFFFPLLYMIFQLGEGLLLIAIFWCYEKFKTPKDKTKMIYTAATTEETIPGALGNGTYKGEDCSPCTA
Description: as §1, §2, §3

B1: N6HB426-20 antibody: anti-human NTCP monoclonal antibody from a sub-clone of N6HB426 hybridoma; VH SEQ ID NO: 3, VL SEQ ID NO: 4 (antibody, V domains shown)
VH: QVQLQQSGAELVKPGASVKLSCKASDFTFTEYTIHWIKQMSGQGLEWIGWFYPGSGDIKYSEKFKDKATLTADKSSSTVYMELNRLTSEDSAVYFCARHMRDFRGFYYGRFYFDYWGQGTTLTVSS
VL: EIVLTQSPAIMSASPGEKVTITCRASSSVSSSYLHWYQQKSGVSPKLWIYSTSNLASGVPARFSGSGSGTSYSLTINSVEAEDAATYYCQQYSGYRWTFGGGTTLEIKRA
modifications: N6HB426 antibody heavy chain variable region; N6HB426 antiibody light chain variable region
In the case of B1, the “bile acid level in the sera” value [1] is reported as “transient increase”, the “inhibition of bile acid uptake” value (human NTCP; 1000 nM, 1 µM) is reported as 3% and the “inhibition of bile acid uptake” value (human NTCP; 1000 nM, listed as purified N6HB426 antibody, 1 µM) is reported as “at most 2%”. For the same molecule, the “inhibition of bile acid uptake” value (human NTCP; at concentration required for inhibition of infection (IC50 20 to 30 nM)) was “virtually did not inhibit”, the “binding to single mutant Y146A” value (human NTCP Y146A mutant) was “significantly low binding” and the “binding to triple mutant (YDD146, 149, and 152AAA)” value [2] was “weak binding”.
